B1: Histone H1t, residues 44 to 112; numbered along this chain, P22492 (parent)
chain: VSKLITEALSVSQERVGMSLVALKKALAAAGYDVEKNNSRIKLSLKSLVNKGILVQTRGTGASGSFKLS

± gives the uncertainty stated by the source.

The variants in the data set derive from B1. Description: abundance fitness (aPCA) (normalised: wild type 0, dead -1); higher = more abundant; growth selection in yeast, the domain comes from the species named. As to conditions: Homo sapiens.
VSKLITEALSVSQERVGMSLVALKKALAAAGYDVEKNNSRIKPSLKSLVNKGILVQTRGTGASGSFKLS [L43P]: the abundance fitness is -0.483 ± 0.033.
With VSKLITEALSVSQERVGMSLVALKKALAAAGYDVEKNNSRIKASLKSLVNKGILVQTRGTGASGSFKLS [L43A] the figure was 0.18 ± 0.032.
As for VSKLITEALSVSQERVGMSLVALKKALAAAGYDVEKNNSRILLSLKSLVNKGILVQTRGTGASGSFKLS [K42L], the figure is 0.048 ± 0.031.
With VSKLITEALSVSQERVGMSLVALKKALAAAGYDVEKNNSRIRLSLKSLVNKGILVQTRGTGASGSFKLS [K42R] the figure was -0.125 ± 0.041; with VSKLITEALSVSQERVGMSLVALKKALAAAGYDVEKNNSRIDLSLKSLVNKGILVQTRGTGASGSFKLS [K42D], -0.096 ± 0.065; with VSKLITEALSVSQERVGMSLVALKKALAAAGYDVEKNNSRIMLSLKSLVNKGILVQTRGTGASGSFKLS [K42M], 0.14 ± 0.05.
Take VSKLITEALSVSQERVGMSLVALKKALAAAGYDVEKNNSRIYLSLKSLVNKGILVQTRGTGASGSFKLS [K42Y]: the abundance fitness is -0.138 ± 0.086.
With VSKLITEALSVSQERVGMSLVALKKALAAAGYDVEKNNSRIALSLKSLVNKGILVQTRGTGASGSFKLS [K42A] the figure was -0.098 ± 0.025; with VSKLITEALSVSQERVGMSLVALKKALAAAGYDVEKNNSRIFLSLKSLVNKGILVQTRGTGASGSFKLS [K42F], -0.413 ± 0.12; with VSKLITEALSVSQERVGMSLVALKKALAAAGYDVEKNNSRIHLSLKSLVNKGILVQTRGTGASGSFKLS [K42H], -0.158 ± 0.073.
In the case of VSKLITEALSVSQERVGMSLVALKKALAAAGYDVEKNNSRIGLSLKSLVNKGILVQTRGTGASGSFKLS [K42G], the abundance fitness was -0.188 ± 0.039.
With VSKLITEALSVSQERVGMSLVALKKALAAAGYDVEKNNSRIELSLKSLVNKGILVQTRGTGASGSFKLS [K42E] the figure was 0.182 ± 0.038; with VSKLITEALSVSQERVGMSLVALKKALAAAGYDVEKNNSRIVLSLKSLVNKGILVQTRGTGASGSFKLS [K42V], -0.024 ± 0.028.
As for VSKLITEALSVSQERVGMSLVALKKALAAAGYDVEKNNSRIPLSLKSLVNKGILVQTRGTGASGSFKLS [K42P], the figure is -0.682 ± 0.029; as for VSKLITEALSVSQERVGMSLVALKKALAAAGYDVEKNNSRISLSLKSLVNKGILVQTRGTGASGSFKLS [K42S], -0.108 ± 0.031.
Regarding VSKLITEALSVSQERVGMSLVALKKALAAAGYDVEKNNSRIILSLKSLVNKGILVQTRGTGASGSFKLS [K42I], the abundance fitness is 0.094 ± 0.12.
On to VSKLITEALSVSQERVGMSLVALKKALAAAGYDVEKNNSRINLSLKSLVNKGILVQTRGTGASGSFKLS [K42N], for which the abundance fitness is -0.379 ± 0.19.
With VSKLITEALSVSQERVGMSLVALKKALAAAGYDVEKNNSRITLSLKSLVNKGILVQTRGTGASGSFKLS [K42T], the abundance fitness was -0.045 ± 0.035.
With VSKLITEALSVSQERVGMSLVALKKALAAAGYDVEKNNYRIKLSLKSLVNKGILVQTRGTGASGSFKLS [S39Y] the figure was -0.557 ± 0.23; with VSKLITEALSVSQERVGMSLVALKKALAAAGYDVEKNNLRIKLSLKSLVNKGILVQTRGTGASGSFKLS [S39L], -0.317 ± 0.028.
As for VSKLITEALSVSQERVGMSLVALKKALAAAGYDVEKNNPRIKLSLKSLVNKGILVQTRGTGASGSFKLS [S39P], the figure is -0.445 ± 0.045; as for VSKLITEALSVSQERVGMSLVALKKALAAAGYDVEKNNMRIKLSLKSLVNKGILVQTRGTGASGSFKLS [S39M], -0.228 ± 0.045; as for VSKLITEALSVSQERVGMSLVALKKALAAAGYDVEKNNHRIKLSLKSLVNKGILVQTRGTGASGSFKLS [S39H], -0.089 ± 0.085.
With VSKLITEALSVSQERVGMSLVALKKALAAAGYDVEKNNERIKLSLKSLVNKGILVQTRGTGASGSFKLS [S39E] the figure was 0.148 ± 0.052; with VSKLITEALSVSQERVGMSLVALKKALAAAGYDVEKNNQRIKLSLKSLVNKGILVQTRGTGASGSFKLS [S39Q], 0.075 ± 0.04; with VSKLITEALSVSQERVGMSLVALKKALAAAGYDVEKNNRRIKLSLKSLVNKGILVQTRGTGASGSFKLS [S39R], -0.327 ± 0.049.
In the case of VSKLITEALSVSQERVGMSLVALKKALAAAGYDVEKNNKRIKLSLKSLVNKGILVQTRGTGASGSFKLS [S39K], the abundance fitness is -0.001 ± 0.045.
With VSKLITEALSVSQERVGMSLVALKKALAAAGYDVEKNNWRIKLSLKSLVNKGILVQTRGTGASGSFKLS [S39W] the figure was -0.472 ± 0.072.
As for VSKLITEALSVSQERVGMSLVALKKALAAAGYDVEKNNVRIKLSLKSLVNKGILVQTRGTGASGSFKLS [S39V], the figure is -0.539 ± 0.059; as for VSKLITEALSVSQERVGMSLVALKKALAAAGYDVEKNNDRIKLSLKSLVNKGILVQTRGTGASGSFKLS [S39D], -0.013 ± 0.11.
As for VSKLITEALSVSQERVGMSLVALKKALAAAGYDVEKNNCRIKLSLKSLVNKGILVQTRGTGASGSFKLS [S39C], the figure is -0.675 ± 0.22; as for VSKLITEALSVSQERVGMSLVALKKALAAAGYDVEKNNFRIKLSLKSLVNKGILVQTRGTGASGSFKLS [S39F], -0.594 ± 0.067.
On to VSKLITEALSVSQERVGMSLVALKKALAAAGYDVEKNNNRIKLSLKSLVNKGILVQTRGTGASGSFKLS [S39N], for which the abundance fitness came to 0.075 ± 0.15.
With VSKLITEALSVSQERVGMSLVALKKALAAAGYDVEKNNGRIKLSLKSLVNKGILVQTRGTGASGSFKLS [S39G] the figure was -0.087 ± 0.044; with VSKLITEALSVSQERVGMSLVALKKALAAAGYDVEKNNSRIKLFLKSLVNKGILVQTRGTGASGSFKLS [S44F], -0.298 ± 0.098.
With VSKLITEALSVSQERVGMSLVALKKALAAAGYDVEKNNSRIKLCLKSLVNKGILVQTRGTGASGSFKLS [S44C], the abundance fitness was 0.217 ± 0.18.
As for VSKLITEALSVSQERVGMSLVALKKALAAAGYDVEKNNSRIKLELKSLVNKGILVQTRGTGASGSFKLS [S44E], the figure is 0.175 ± 0.29; as for VSKLITEALSVSQERVGMSLVALKKALAAAGYDVEKNNSRIKLALKSLVNKGILVQTRGTGASGSFKLS [S44A], 0.324 ± 0.2; as for VSKLITEALSVSQERVGMSLVALKKALAAAGYDVEKNNSRIKLHLKSLVNKGILVQTRGTGASGSFKLS [S44H], -0.126 ± 0.044.

For the origin of these results see the Human Domainome abundance scans (Beltran et al. 2025).
